Data published in US20130059772A1, “Use of Repeat Sequence Protein Polymers in Personal Care Compositions” (DANISCO US INC., priority 2003, published 2013).

Legend:
[1] = test system: Fibroblasts (HDFn Cell Line); test: Initial pilot cell viability dose response (MTT assay); details: initial dose response, summary in words
[2] = test system: MMP-1; test: MMP-1 assay (fluorometric ELISA of fibroblast culture media); assay type: cell-based, human; details: for MMP-1 Activity: 48 hours, untreated 0.11 ± 0.05
Experimental: MMP-1 is a zinc and calcium dependent endopeptidase that is produced and released from both dermal fibroblasts and keratinocytes, and functions to break down collagens located in the extracellular matrix. Active MMP-1 released into the culture media can be assayed using a fluorescence-based ELISA. […] To quantify the active MMP-1 a fluorogenic substrate linked to a quencher molecule is added and any active MMP-1 present will cleave the peptide linkage between the fluorophore and the quencher molecule. This cleavage will eliminate the quencher molecules ability to inhibit the fluorescent signal of the fluorophore allowing a fluorescent signal that will be proportional to the amount of active MMP-1 present.
(§1) The test materials were tested in triplicate.
R&D Products MMP-1 Fluorokine E fluorometric ELISA kits were used in these experiments. A series of MMP-1 standards was prepared ranging from 0.39 ng/ml to 25 ng/ml and an ELISA microplate was prepared by removing any unneeded strips from the plate frame. In each well, 200 μA of Assay Diluent RD1-64 and 50 μA of each sample were added. For the standards, 100 μl of Assay Diluent RD1-64 and 150 μl of each respective standard were added. The plate was incubated for 3±0.25 hours at room temperature on a rocking platform. At the end of the incubation period, each well was aspirated and then washed four times with 400 μl of wash buffer. […] After the incubation period, the plate was washed four times as described above. After the last wash, 200 μl of substrate solution were added to each well and the plate was incubated for 17-20 hours at 37±2° C. (protected from light). At the end of the incubation period, the fluorescence intensity was measured (excitation 320 nm, emission 405 nm) using a fluorometer using a 20 mS integration time. To quantify the amount of MMP-1 activity, a standard curve was generated using known activity levels of MMP-1. […] Mean absorbance values for the test materials and untreated samples were then used to estimate the amount of MMP-1 activity present in each sample.

[3] = test system: elastin; test: Elastin assay (Fastin colorimetric assay of culture media); assay type: cell-based, human; details: 48 hours, spent fibroblast media, untreated 69 ± 2
Experimental: Elastin is released by fibroblasts (soluble elastin) into the extracellular space where it is then cross-linked to other elastin proteins to form an extensive network of fibers and sheets (insoluble elastin). Soluble elastin can be readily measured from cell culture medium via a colorimetric assay.
as §1
In these experiments, the Biocolor Fastin Elastin Assay kits were used. A 50 μl aliquot of sample material (cell culture medium for soluble elastin) was mixed with 1.0 ml of cold Fastin Precipitating Reagent in a 1.5-ml microcentrifuge tube. In addition to the spent media samples from the fibroblasts, 50 μl aliquots of the test materials diluted into fresh culture media at the concentrations used in the study were also assayed for elastin content. The sample/Fastin Precipitating Reagent mixture was then incubated overnight in an ice water bath to precipitate the elastin. On the following day, the cold microcentrifuge tubes were spun at 10,000×g for 10 minutes to pack the precipitated elastin and the supernatant was removed via careful aspiration.
One (1) ml of Fastin Dye Reagent, along with 100 μl of 90% saturated ammonium sulphate was added to each tube. The microcentrifuge tubes were mixed with a vortex mixer and then allowed to incubate for at least 60 minutes at room temperature, with gentle mechanical agitation. The Fastin Dye Reagent interacts with unique amino acid sequences in the elastin protein. This elastin-dye complex precipitates in the presence of ammonium sulphate. After the incubation was over, the microcentrifuge tubes were spun at 10,000×g for 10 minutes to separate the precipitated elastin-dye complex from the unbound dye. The supernatant was carefully removed and the tubes were inverted to allow any residual supernatant to drain out.
To release the elastin-bound dye, 1.0 ml of Fastin Destain reagent was added to each microcentrifuge tube. The tubes were capped as quickly as possible, as this reagent contains ammonia and methanol. The tubes were then vortexed. The absorbance of this solution was measured by a plate reader at 490 nm (200 μl volume read).
An elastin standard curve was generated using 12.5, 25, and 50 μg aliquots of an Elastin Standard into microcentrifuge tubes (in duplicate). These samples were treated as described above (Elastin Assay) and the absorbance values were used to generate a standard curve of known concentrations. To derive the standard curve for the elastin assay, the absorbance was plotted against the elastin concentration in μg/ml for the standards. […] Mean absorbance values for the test materials and untreated samples were then used to estimate the amount of elastin present in each sample.

[4] = test system: procollagen type I C-peptide; test: Procollagen assay (type I C-peptide ELISA of fibroblast culture media); assay type: cell-based, human; details: 48 hours, untreated 873 ± 111
Description: Collagen is synthesized as part of a much larger procollagen peptide. As the peptide is processed to form a mature collagen protein, the propeptide portion is cleaved off (type I C-peptide). Both the mature collagen protein and the type I C-peptide fragment are then released into the extracellular environment and accumulate in the culture media. Since there is a 1:1 stoichiometric ratio between the two parts of the procollagen peptide, assaying for type I C-peptide will reflect the amount of collagen synthesized. Type 1 C-peptide can be assayed via an ELISA based method.
as §1
Takara procollagen type IC-peptide ELISA kits were used in these experiments. A series of type I C-peptide standards was prepared ranging from 40 ng/ml to 640 ng/ml. An ELISA microplate was then prepared by removing any unneeded strips from the plate frame. To each well in the plate 100 μl of peroxidase-labeled anti procollagen type I-C peptide was added, followed by 20 μA of either sample (tissue culture media) or standard. The microplate was covered and allowed to incubate for 3±0.25 hours at 37° C. After the incubation period, each well was aspirated and washed three times with 400 μl of wash buffer. After the last wash was removed, 100 μl of peroxidase substrate solution (hydrogen peroxide containing tetramethylbenzidine as a chromagen) were added to each well and the plate was incubated for 15±5 minutes at room temperature. After the incubation period, 100 μA of stop solution (1 N sulfuric acid) was added to each well and the plate was read using a microplate reader at 450 nm. To quantify the amount of procollagen present, a standard curve was generated using known concentrations of procollagen type 1-C peptide. […] Mean absorbance values for the test materials and untreated samples was then used to estimate the amount of procollagen type 1-C peptide present in each sample.

B1: GC2596-26-E: collagen-like repeat sequence protein polymer, head-[(GAHGPAGPK)2(GAQGPAGPG)24(GAHGPAGPK)2]4-tail; SEQ ID NO:34 (Example 5) (protein)
chain: MDPVVLQRRDWENPGVTQLNRLAAHPPFASDPMGAHGPAGPKGAHGPAGPKGAQGPAGPGGAQGPAGPGGAQGPAGPGGAQGPAGPGGAQGPAGPGGAQGPAGPGGAQGPAGPGGAQGPAGPGGAQGPAGPGGAQGPAGPGGAQGPAGPGGAQGPAGPGGAQGPAGPGGAQGPAGPGGAQGPAGPGGAQGPAGPGGAQGPAGPGGAQGPAGPGGAQGPAGPGGAQGPAGPGGAQGPAGPGGAQGPAGPGGAQGPAGPGGAQGPAGPGGAHGPAGPKGAHGPAGPKGAHGPAGPKGAHGPAGPKGAQGPAGPGGAQGPAGPGGAQGPAGPGGAQGPAGPGGAQGPAGPGGAQGPAGPGGAQGPAGPGGAQGPAGPGGAQGPAGPGGAQGPAGPGGAQGPAGPGGAQGPAGPGGAQGPAGPGGAQGPAGPGGAQGPAGPGGAQGPAGPGGAQGPAGPGGAQGPAGPGGAQGPAGPGGAQGPAGPGGAQGPAGPGGAQGPAGPGGAQGPAGPGGAQGPAGPGGAHGPAGPKGAHGPAGPKGAHGPAGPKGAHGPAGPKGAQGPAGPGGAQGPAGPGGAQGPAGPGGAQGPAGPGGAQGPAGPGGAQGPAGPGGAQGPAGPGGAQGPAGPGGAQGPAGPGGAQGPAGPGGAQGPAGPGGAQGPAGPGGAQGPAGPGGAQGPAGPGGAQGPAGPGGAQGPAGPGGAQGPAGPGGAQGPAGPGGAQGPAGPGGAQGPAGPGGAQGPAGPGGAQGPAGPGGAQGPAGPGGAQGPAGPGGAHGPAGPKGAHGPAGPKGAHGPAGPKGAHGPAGPKGAQGPAGPGGAQGPAGPGGAQGPAGPGGAQGPAGPGGAQGPAGPGGAQGPAGPGGAQGPAGPGGAQGPAGPGGAQGPAGPGGAQGPAGPGGAQGPAGPGGAQGPAGPGGAQGPAGPGGAQGPAGPGGAQGPAGPGGAQGPAGPGGAQGPAGPGGAQGPAGPGGAQGPAGPGGAQGPAGPGGAQGPAGPGGAQGPAGPGGAQGPAGPGGAQGPAGPGGAHGPAGPKGAHGPAGPKMDPGRYQLSAGRYHYQLVWCQK
modifications: silk-elastin repeat sequence protein copolymer
effect on the number of viable cells [1]: reduce the number of viable cells | MMP-1 Activity ([2]; 0.001%): 0.04 ± 0.05 ng/mL | MMP-1 Activity ([2]; 0.005%): -0.01 ± 0.02 ng/mL | MMP-1 Activity ([2]; 0.01%): 0.00 ± 0.02 ng/mL | effect on MMP-1 activity ([2]; summary in words): almost complete loss of detectable MMP-1 activity | Elastin ([3]; 0.001%): 63 ± 10 μg/ml media | Elastin ([3]; 0.005%): 59 ± 5 μg/ml media | Elastin ([3]; 0.01%): 50 ± 18 μg/ml media | Type-1 C Peptide ([4]; 0.001%): 838 ± 75 ng/mL | Type-1 C Peptide ([4]; 0.005%): 1162 ± 194 ng/mL | Type-1 C Peptide ([4]; 0.01%): 956 ± 110 ng/mL
